One assay has as its target T1, human CD48 (Homo sapiens, UniProt P09326).
T1 construct: expressed in transfected cells; host or cells: K562 or Rat2 cells, electroporated/lipofected with mRNA
T1 sequence (P09326 27-220): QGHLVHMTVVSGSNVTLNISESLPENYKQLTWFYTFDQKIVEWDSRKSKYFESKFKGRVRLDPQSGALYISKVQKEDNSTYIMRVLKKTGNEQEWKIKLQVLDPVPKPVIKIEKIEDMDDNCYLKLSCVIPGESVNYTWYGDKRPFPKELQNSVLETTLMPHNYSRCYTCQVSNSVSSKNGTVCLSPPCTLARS
As to the kind of experiment: T cell degranulation (CD107a) against cells overexpressing CD48. Format: cell-based. To be noted: 4-6 hours coculture; K562 or Rat2 cells. The method, then:
(§1) FIG. 23D is a series of flow cytometry plots showing the expression of CD48, CD58 or CD59 on K562 and Rat2 cells. To confirm possible ligands for the CSR WT CD2z molecule, a panel of known and suspected ligands including human CD48, CD58, and CD59 were tested. Degranulation of engineered T cells was evaluated against the cell lines K562 and Rat2 that were made to overexpress the target ligands and confirmed for expression by FACS staining. Red histograms are unstained cells and blue histograms are cells that were electroporated/lipofected with mRNA and then stained for expression of the respective marker by FACS.
FIG. 23E is a bar graph showing that CSR CD2z recognizes human CD58, but not CD48 or CD59. To confirm possible ligands for the CSR WT CD2z molecule, a panel of known and suspected ligands including human CD48, CD58, and CD59 were tested. Degranulation of engineered T cells was evaluated against the cell lines K562 and Rat2 that were made to overexpress the target ligands and confirmed for expression by FACS staining. Cells were electroporated/lipofected with mRNA and then stained for expression of the respective marker by FACS. […] T cell degranulation is a surrogate of T cell killing that can be measured by FACS staining for intracellular CD107a expression following coculture with target cell lines expressing target antigen. […]

Another assay concerns TCRb and b2M. As to the kind of experiment: Gene editing (knockout of TCR and MHCI) of Allo CAR-T cells with CSR. The class given is cell-based, human. To be noted: up to 14-day culture; CSR stable or transient. From the text: Pan T cells isolated from healthy donor blood were genetically modified using the piggyBac® DNA modification system in combination with the Cas-CLOVER™ gene-editing system (CC) to produce allogeneic (Allo) CAR-T cells. […] Following EP, all cells were subsequently stimulated with a cocktail of agonist mAbs anti-CD2, anti-CD3 and anti-CD28, and were later selected for genetic modification over the course of up to a 14-day culture period using the selection gene. At the end of the initial culture period, all T cells expressed the CAR, indicating successful selection for genetically-modified cells (data not shown). All samples were performed in duplicate, and data is shown in bar graph where error bars represent standard deviation.

The target in a further assay is T2, human CD58 (Homo sapiens, UniProt P19256).
T2 construct: expressed in transfected cells; host or cells: K562 (electroporated) or Rat2 (lipofected) cells
T2 sequence (P19256 29-250): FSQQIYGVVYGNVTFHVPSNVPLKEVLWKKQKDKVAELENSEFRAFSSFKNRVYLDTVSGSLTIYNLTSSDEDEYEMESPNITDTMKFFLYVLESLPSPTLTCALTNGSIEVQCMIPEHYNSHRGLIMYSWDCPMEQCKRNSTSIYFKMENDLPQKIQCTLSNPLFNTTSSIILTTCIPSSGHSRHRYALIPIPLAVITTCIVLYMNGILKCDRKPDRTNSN
Nature of the assay: T cell degranulation (CD107a) against CD58-positive cell targets. Format: cell-based. To be noted: 4-6 hours coculture; K562 or Rat2 cells with mRNA encoding human CD58. The method, then: FIG. 23B is a series of bar graphs showing CSR CD2z mutant degranulation data. The panel of CSR CD2z mutants was tested for the capability of mediating degranulation against CD58-positive cell targets. T cell degranulation is a surrogate of T cell killing that can be measured by FACS staining for intracellular CD107a expression following coculture with target cell lines expressing target antigen. Specifically, pan T cells from normal blood donors were stimulated with anti-CD3/anti-CD28 beads in standard T cell culture media, then rested. These cells were then electroporated (BTX ECM 830 electroporator @ 500V for 700 μs) with 9 μg of mRNA expressing CSR CD2z mutants and cultured overnight. The next day, the cells were cocultured for 4-6 hours in the presence of various target cell lines. Positive target cell lines included K562 cells or Rat2 cells that were electroporated or lipofected, respectively, with mRNA encoding human CD58, while negative controls were either Rat2 cells that were not electroporated or CSR CD2z mutant expressing T cells alone.
FIG. 23C is a summary of staining and degranulation data. Data from surface-expression and binding studies, as well as those from degranulation experiments for each CSR CD2z mutant is summarized in the table.
as §1
FIG. 23E is a bar graph showing that CSR CD2z recognizes human CD58, but not CD48 or CD59. To confirm possible ligands for the CSR WT CD2z molecule, a panel of known and suspected ligands including human CD48, CD58, and CD59 were tested. Degranulation of engineered T cells was evaluated against the cell lines K562 and Rat2 that were made to overexpress the target ligands and confirmed for expression by FACS staining. Cells were electroporated/lipofected with mRNA and then stained for expression of the respective marker by FACS. As a control, a BCMA CAR was included as well as a K562 cell line overexpressing BCMA. In addition, T cells transfected with GFP were also included as a control. T cell degranulation is a surrogate of T cell killing that can be measured by FACS staining for intracellular CD107a expression following coculture with target cell lines expressing target antigen. Pan T cells from normal blood donors were stimulated with anti-CD3/anti-CD28 beads in standard T cell culture media, then rested. These T cells were then electroporated with mRNA expressing CSR WT CD2z, BCMA CAR, or GFP and cultured overnight. The next day, the cells were cocultured for 4-6 hours in the presence of the various target cell lines that were electroporate/lipofected with mRNA encoding human CD48, CD58 or CD59, while negative controls were either K562 or Rat2 cells that were not electroporated/lipofected, or each of the electroporated T cells alone.

B1: CD2z CSR: chimeric stimulatory receptor: CD2 signal peptide, extracellular, transmembrane and cytoplasmic domains with CD3z intracellular domain (SEQ ID NO: 17062) (protein)
chain: MSFPCKFVASFLLIFNVSSKGAVSKEITNALETWGALGQDINLDIPSFQMSDDIDDIKWEKTSDKKKIAQFRKEKETFKEKDTYKLFKNGTLKIKHLKTDDQDIYKVSIYDTKGKNVLEKIFDLKIQERVSKPKISWTCINTTLTCEVMNGTDPELNLYQDGKHLKLSQRVITHKWTTSLSAKFKCTAGNKVSKESSVEPVSCPEKGLDIYLIIGICGGGSLLMVFVALLVFYITKRKKQRSRRNDEELETRAHRVATEERGRKPHQIPASTPQNPATSQHPPPPPGHRSQAPSHRPPPPGHRVQHQPQKRPPAPSGTQVHQQKGPPLPRPRVQPKPPHGAAENSLSPSSNRVKFSRSADAPAYKQGQNQLYNELNLGRREEYDVLDKRRGRDPEMGGKPRRKNPQEGLYNELQKDKMAEAYSEIGMKGERRRGKGHDGLYQGLSTATKDTYDALHMQALPPR
On to B1, for which the “degranulation (CD107a) against CD48” value with human CD48 was “not against human CD48 or CD59”. For the same molecule, in the assay on TCRb and b2M, the “degree of gene editing compared to Allo CAR-T cells produced without a CSR” value was “a similar or greater degree of gene editing”. Moreover, the “degranulation (CD107a) against CD58” value with human CD58 is reported as “capable of degranulating at levels above background”.

For the origin of these results see patent publication US20220389077A1, “ALLOGENEIC CELL COMPOSITIONS AND METHODS OF USE” (Poseida Therapeutics, Inc., priority 2018, published 2022).
